The record followed here is publication doi:10.1101/466946 (bioRxiv, 2018).

In this assay the target is recombinant full-length CIN85 (human, UniProt Q96B97 1-665). In words: SPR.
Sequence of recombinant full-length CIN85 (Q96B97 whole entry): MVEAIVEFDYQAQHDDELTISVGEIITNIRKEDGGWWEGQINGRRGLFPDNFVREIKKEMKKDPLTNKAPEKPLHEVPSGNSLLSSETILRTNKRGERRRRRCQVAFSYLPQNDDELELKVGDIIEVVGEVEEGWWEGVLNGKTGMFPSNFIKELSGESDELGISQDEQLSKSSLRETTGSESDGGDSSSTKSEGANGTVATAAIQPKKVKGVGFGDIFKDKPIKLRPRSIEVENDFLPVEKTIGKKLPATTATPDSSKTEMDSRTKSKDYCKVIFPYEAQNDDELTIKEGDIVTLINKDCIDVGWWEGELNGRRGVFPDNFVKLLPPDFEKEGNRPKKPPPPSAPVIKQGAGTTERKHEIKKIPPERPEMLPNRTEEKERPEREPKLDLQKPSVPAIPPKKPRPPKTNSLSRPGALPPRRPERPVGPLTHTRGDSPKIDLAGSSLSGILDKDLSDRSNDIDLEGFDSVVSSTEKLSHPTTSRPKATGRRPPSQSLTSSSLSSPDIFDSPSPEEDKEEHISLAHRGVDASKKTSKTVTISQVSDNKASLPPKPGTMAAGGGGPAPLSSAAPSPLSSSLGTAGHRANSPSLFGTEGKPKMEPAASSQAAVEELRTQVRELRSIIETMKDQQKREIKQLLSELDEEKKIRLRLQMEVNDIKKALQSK

B1: recombinant PHD2 (enzyme, human, UniProt Q9GZT9 1-426, looked up)
chain: MANDSGGPGGPSPSERDRQYCELCGKMENLLRCSRCRSSFYCCKEHQRQDWKKHKLVCQGSEGALGHGVGPHQHSGPAPPAAVPPPRAGAREPRKAAARRDNASGDAAKGKVKAKPPADPAAAASPCRAAAGGQGSAVAAEAEPGKEEPPARSSLFQEKANLYPPSNTPGDALSPGGGLRPNGQTKPLPALKLALEYIVPCMNKHGICVVDDFLGKETGQQIGDEVRALHDTGKFTDGQLVSQKSDSSKDIRGDKITWIEGKEPGCETIGLLMSSMDDLIRHCNGKLGSYKINGRTKAMVACYPGNGTGYVRHVDNPNGDGRCVTCIYYLNKDWDAKVSGGILRIFPEGKAQFADIEPKFDRLLFFWSDRRNPHEVQPAYATRYAITVWYFDADERARAKVKYLTGEKGVRVELNKPSDSVGKDVF
Usually Kd stands for the free concentration of one partner at which half of the binding sites on the other are occupied at equilibrium, for simple one-to-one binding. As for B1, the equilibrium dissociation constant (Kd) was found to be 0.0285 µM.
